From patent US20060182721A1 come the findings set out here.

The target of the test is Notch on human peripheral blood CD14-positive cells (human). Kind of test: cell-based or functional assay.

In the case of “Delta-1 construct composed of the human Delta-1 extracellular domain and 6 myc proteins (from UniProt O00548 18-545) (ligand)”, the level of HES-1 gene expression (real-time RT-PCR, ratio to GAPDH) in CD14-positive cells after 24 hours of culture came to 8 times.
